Test results from CN112592405A (BIOSION BIO TECH NANJING CO LTD, dated 2021).

T1: 人BCMA-His抗原 (ACRO, Cat#BCA-H522y) (human, UniProt Q02223 1-54)
T1 construct: Bought recombinant protein; also called human BCMA-His; 人BCMA蛋白; not shown: His tag
T1 sequence (looked up): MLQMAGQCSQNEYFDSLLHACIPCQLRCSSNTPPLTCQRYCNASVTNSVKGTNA

B1: BCMA Benchmark1 (antibody sequence of GSK2857916) (antibody, human IgG1, kappa, V domains shown)
VH: QVQLVQSGAEVKKPGSSVKVSCKASGGTFSNYWMHWVRQAPGQGLEWMGATYRGHSDTYYNQKFKGRVTITADKSTSTAYMELSSLRSEDTAVYYCARGAIYDGYDVLDNWGQGTLVTVSS
VL: DIQMTQSPSSLSASVGDRVTITCSASQDISNYLNWYQQKPGKAPKLLIYYTSNLHSGVPSRFSGSGSGTDFTLTISSLQPEDFATYYCQQYRKLPWTFGQGTKLEIKR
notes: also called BCMA-BM1
B2: BCMA-VHH-2B11纳米抗体 (抗人BCMA纳米抗体, 含有Fc tag) (Fc fusion)
chain: QVQLVESGGGLVQAGGSLRLSCAASGGTFNNDNVGWFRQAPGKEREFVAVISWRGDGTDYADSVKGRFTISRDYAKKMVYLQMNSLQPKDTAVYYCAVGDGSRWRGAYAYWGQGTRVTVSS
notes: Expressed in Expi293F cells and purified on Protein A/G. It was tested as VHH with an Fc tag, about 35 kDa on SDS-PAGE; also called anti-human BCMA nanobody; not shown: Fc tag

Biological target: T1, 人BCMA-His抗原 (ACRO, Cat#BCA-H522y)
Test: indirect ELISA, plate coated with human BCMA-His at 2 μg/ml, detection with HRP goat anti-human Fcγ

Row | Binder | binding result
1 | B1 | binds
2 | B2 | binds
